The source of these data is article PMC8811898, “Structural Insights into Methylated DNA Recognition by the Methyl-CpG Binding Domain of MBD6 from Arabidopsis thaliana”.

Series [1] deals with T1, AtMBD6 MBD domain WT (Arabidopsis thaliana, UniProt Q9LTJ1 78-140).
T1 sequence: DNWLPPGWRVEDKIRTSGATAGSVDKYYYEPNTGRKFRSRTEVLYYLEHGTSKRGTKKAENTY
Briefly: NMR titration (1H-15N HSQC); 20 mM Na phosphate pH 6.5, 150 mM NaCl, 20 C; two-state fit; NMR: 20 mM Na phosphate pH 6.5, 150 mM NaCl, 5% D2O, 20 C; EMSA: 25 mM Tris, 25 mM boric acid, 150 mM NaCl, 5% glycerol, 1 mM DTT, 4 C, 30 min. The settings on record: protein: recombinant; tags: GST removed by HRV3C; N-terminal GPLGS remains; blunt; self-complementary. On the technique in general: In EMSA bound probe runs differently from free probe, usually more slowly.

Series [2] deals with T2, AtMBD6 MBD domain S100R (Arabidopsis thaliana, UniProt Q9LTJ1 78-140, S100R).
T2 sequence: T1 sequence with S23R
Briefly: NMR titration (1H-15N HSQC); slow exchange, increased affinity vs WT; no reliable Kd from NMR, ITC or FP; NMR: 20 mM Na phosphate pH 6.5, 150 mM NaCl, 5% D2O, 20 C; EMSA: 25 mM Tris, 25 mM boric acid, 150 mM NaCl, 5% glycerol, 1 mM DTT, 4 C, 30 min. The conditions noted are these: protein: recombinant; tags: GST removed by HRV3C; N-terminal GPLGS remains; blunt; self-complementary.

Changes are numbered by the printed parent chain.

B1: MG (dsDNA)
DNA 1: GGTATGCGCATACC
DNA 2: GGTATGCGCATACC
modifications: 5-methylcytosine at position 7 of both strands (symmetric methyl-CpG)
As for B1, the Kd – broadly, the constant that tells how readily two partners part at equilibrium – in series [1] is 40.2 ± 0.5 µM. Moreover, the binding result in series [2] is recorded as “binds”.
